Measured values taken from publication PMC7954794, “Protein context shapes the specificity of SH3 domain-mediated interactions in vivo” (Nature Communications, 2021).

B1: LSB3 (protein)
chain: MGINNPIPRSLKSETKKAAKILASFVKPNQVFGADQVIPPDVLKRAKGLAIITILKAGFLFSGRAGSGVIVARLKDGTWSAPSAIAMAGAGAGGMVGIELTDFVFILNTQDAVKSFSEFGTITLGGNVSVSAGPLGRSAEAAASASAGGVAAVFAYSKSKGLFAGVSVEGSAIIERREANRKFYGDNCTAKMILSGRIRPPPAVDPLFRVLESRAFNYRPSNGGRGSFDDDEDDYYDDDDYYNDIPSSFSSTDASSTRPNTRSTRRRAQSGSRYTFDDDDDDDDYGTGYSRNSRLAPTNSGGSGGKLDDPSGASSYYASHRRSGTAQSRARSSRNRWADDEYDDYDDDYESGYRRGNGRDRTKDREVDDLSNRFSKSRISSASTPQTSQGRFTAPTSPSTSSPKAVALYSFAGEESGDLPFRKGDVITILKKSDSQNDWWTGRVNGREGIFPANYVELV
modifications: left off: DHFR F[3], C-terminal, kept
B2: LSB1 (protein, UniProt P53281 2-241, looked up)
LAS seventeen-binding protein …: SASLVNRSLKNIRNELEFLKESNVISGDIFELINSKLPEKWDGNQRSPQNADTEEYVEALYDFEAQQDGDLSLKTGDKIQVLEKISPDWYRGKSNNKIGIFPANYVKPAFTRSASPKSAEAASSSTVSRPSVPPPSYEPAASQYPSQQVSAPYAPPAGYMQAPPPQQQQAPLPYPPPFTNYYQQPQQQYAPPSQQAPVEAQPQQSSGASSAFKSFGSKLGNAAIFGAGSAIGSDIVNSIF

Test system: Abp1 PPIs
Experiment: DHFR-PCA of Abp1 SH3-swapped baits (Fig. 2B-D, S2C, S2F);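 as to Protein-protein interaction distance between Abp1 SH3-swapped baits, to ABP1: Euclidean distance between DHFR-PCA score profiles of the baits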;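 as to Protein-protein interaction distance between Abp1 SH3-swapped baits, to BEM1-2: Euclidean distance between DHFR-PCA score profiles of the baits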;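 as to Protein-protein interaction distance between Abp1 SH3-swapped baits, to BOI1: Euclidean distance between DHFR-PCA score profiles of the baits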;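 as to Protein-protein interaction distance between Abp1 SH3-swapped baits, to BZZ1-1: Euclidean distance between DHFR-PCA score profiles of the baits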
Type: cell-based, Saccharomyces cerevisiae
Conditions: for Protein-protein interaction distance between Abp1 SH3-swapped baits, to ABP1: Abp1 bait with swapped SH3, distance to bait with ABP1 SH3; for Protein-protein interaction distance between Abp1 SH3-swapped baits, to BBC1: distance to Abp1 bait with BBC1 SH3; for Protein-protein interaction distance between Abp1 SH3-swapped baits, to BEM1-1: distance to Abp1 bait with BEM1-1 SH3; for Protein-protein interaction distance between Abp1 SH3-swapped baits, to BEM1-2: distance to Abp1 bait with BEM1-2 SH3; for Protein-protein interaction distance between Abp1 SH3-swapped baits, to BOI1: distance to Abp1 bait with BOI1 SH3; for Protein-protein interaction distance between Abp1 SH3-swapped baits, to BOI2: distance to Abp1 bait with BOI2 SH3; for Protein-protein interaction distance between Abp1 SH3-swapped baits, to BUD14: distance to Abp1 bait with BUD14 SH3; for Protein-protein interaction distance between Abp1 SH3-swapped baits, to BZZ1-1: distance to Abp1 bait with BZZ1-1 SH3; for Protein-protein interaction distance between Abp1 SH3-swapped baits, to BZZ1-2: distance to Abp1 bait with BZZ1-2 SH3; for Protein-protein interaction distance between Abp1 SH3-swapped baits, to CDC25: distance to Abp1 bait with CDC25 SH3; for Protein-protein interaction distance between Abp1 SH3-swapped baits, to CTTN: distance to Abp1 bait with CTTN SH3; for Protein-protein interaction distance between Abp1 SH3-swapped baits, to CYK3: distance to Abp1 bait with CYK3 SH3; for Protein-protein interaction distance between Abp1 SH3-swapped baits, to DBNL: distance to Abp1 bait with DBNL SH3; for Protein-protein interaction distance between Abp1 SH3-swapped baits, to FUS1: distance to Abp1 bait with FUS1 SH3; for Protein-protein interaction distance between Abp1 SH3-swapped baits, to HCLS1: distance to Abp1 bait with HCLS1 SH3; for Protein-protein interaction distance between Abp1 SH3-swapped baits, to HOF1: distance to Abp1 bait with HOF1 SH3; for Protein-protein interaction distance between Abp1 SH3-swapped baits, to HSE1: distance to Abp1 bait with HSE1 SH3; for Protein-protein interaction distance between Abp1 SH3-swapped baits, to LSB1: distance to Abp1 bait with LSB1 SH3; for Protein-protein interaction distance between Abp1 SH3-swapped baits, to LSB3: distance to Abp1 bait with LSB3 SH3; for Protein-protein interaction distance between Abp1 SH3-swapped baits, to MYO3: distance to Abp1 bait with MYO3 SH3; for Protein-protein interaction distance between Abp1 SH3-swapped baits, to MYO5: distance to Abp1 bait with MYO5 SH3; for Protein-protein interaction distance between Abp1 SH3-swapped baits, to NBP2: distance to Abp1 bait with NBP2 SH3; for Protein-protein interaction distance between Abp1 SH3-swapped baits, to PIN3: distance to Abp1 bait with PIN3 SH3; for Protein-protein interaction distance between Abp1 SH3-swapped baits, to RVS167: distance to Abp1 bait with RVS167 SH3; for Protein-protein interaction distance between Abp1 SH3-swapped baits, to SDC25: distance to Abp1 bait with SDC25 SH3; for Protein-protein interaction distance between Abp1 SH3-swapped baits, to SHO1: distance to Abp1 bait with SHO1 SH3; for Protein-protein interaction distance between Abp1 SH3-swapped baits, to SLA1-1: distance to Abp1 bait with SLA1-1 SH3; for Protein-protein interaction distance between Abp1 SH3-swapped baits, to SLA1-2: distance to Abp1 bait with SLA1-2 SH3; for Protein-protein interaction distance between Abp1 SH3-swapped baits, to SLA1-3: distance to Abp1 bait with SLA1-3 SH3; for Protein-protein interaction distance between Abp1 SH3-swapped baits, to YSC84: distance to Abp1 bait with YSC84 SH3; for PPIs gained by Abp1 - SH3-dependent PPIs gained by Abp1 / SH3-dependent PPIs - SH3-dependent PPIs gained by Abp1 / SH3-dependent PPIs gained by Abp1: number of PPIs, Abp1 SH3-swapped with the listed SH3, Fig2D,S2F; for PPIs gained by Abp1 - SH3-dependent PPIs gained by Abp1 / SH3-dependent PPIs - SH3-dependent PPIs gained by Abp1: difference; for SH3-dependent PPIs gained by Abp1: DHFR-PCA
Outline: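 Yeast DHFR-PCA in which Abp1 baits, carrying their SH3 replaced by CRISPR–Cas9 with one of 27 yeast SH3s or human CTTN, HCLS1 or DBNL SH3s, were mated against 575 SH3-associated DHFR F[3] preys plus 40 negative controls. Four tests were run per PPI. Diploids were selected twice (48 h, 30 °C), then grown 4 days on PCA selection media.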

Row | Molecule | Protein-protein interaction distance between Abp1 SH3-swapped baits, to ABP1 (sheet Fig2C) | Protein-protein interaction distance between Abp1 SH3-swapped baits, to BBC1 (sheet Fig2C) | Protein-protein interaction distance between Abp1 SH3-swapped baits, to BEM1-1 (sheet Fig2C) | Protein-protein interaction distance between Abp1 SH3-swapped baits, to BEM1-2 (sheet Fig2C) | Protein-protein interaction distance between Abp1 SH3-swapped baits, to BOI1 (sheet Fig2C) | Protein-protein interaction distance between Abp1 SH3-swapped baits, to BOI2 (sheet Fig2C) | Protein-protein interaction distance between Abp1 SH3-swapped baits, to BUD14 (sheet Fig2C) | Protein-protein interaction distance between Abp1 SH3-swapped baits, to BZZ1-1 (sheet Fig2C) | Protein-protein interaction distance between Abp1 SH3-swapped baits, to BZZ1-2 (sheet Fig2C) | Protein-protein interaction distance between Abp1 SH3-swapped baits, to CDC25 (sheet Fig2C) | Protein-protein interaction distance between Abp1 SH3-swapped baits, to CTTN (sheet Fig2C) | Protein-protein interaction distance between Abp1 SH3-swapped baits, to CYK3 (sheet Fig2C) | Protein-protein interaction distance between Abp1 SH3-swapped baits, to DBNL (sheet Fig2C) | Protein-protein interaction distance between Abp1 SH3-swapped baits, to FUS1 (sheet Fig2C) | Protein-protein interaction distance between Abp1 SH3-swapped baits, to HCLS1 (sheet Fig2C) | Protein-protein interaction distance between Abp1 SH3-swapped baits, to HOF1 (sheet Fig2C) | Protein-protein interaction distance between Abp1 SH3-swapped baits, to HSE1 (sheet Fig2C) | Protein-protein interaction distance between Abp1 SH3-swapped baits, to LSB1 (sheet Fig2C) | Protein-protein interaction distance between Abp1 SH3-swapped baits, to LSB3 (sheet Fig2C) | Protein-protein interaction distance between Abp1 SH3-swapped baits, to MYO3 (sheet Fig2C) | other results
1 | B1 | 13.53 | 13.63 | 19.15 | 36.03 | 16.12 | 19.6 | 22.11 | 10.79 | 16.06 | 30.47 | 16.7 | 31.13 | 10.88 | 23.48 | 10.8 | 34.67 | 12.29 | 3.731 | 0.00 | 9.625 | Protein-protein interaction distance between Abp1 SH3-swapped baits, to MYO5 (sheet Fig2C): 8.063; Protein-protein interaction distance between Abp1 SH3-swapped baits, to NBP2 (sheet Fig2C): 21.33; Protein-protein interaction distance between Abp1 SH3-swapped baits, to PEX13 (distance to Abp1 bait with PEX13 SH3, sheet Fig2C): 7.361; Protein-protein interaction distance between Abp1 SH3-swapped baits, to PIN3 (sheet Fig2C): 5.817; Protein-protein interaction distance between Abp1 SH3-swapped baits, to RVS167 (sheet Fig2C): 7.852; Protein-protein interaction distance between Abp1 SH3-swapped baits, to SDC25 (sheet Fig2C): 36.63; Protein-protein interaction distance between Abp1 SH3-swapped baits, to SHO1 (sheet Fig2C): 11.76; Protein-protein interaction distance between Abp1 SH3-swapped baits, to SLA1-1 (sheet Fig2C): 32.92; Protein-protein interaction distance between Abp1 SH3-swapped baits, to SLA1-2 (sheet Fig2C): 23.82; Protein-protein interaction distance between Abp1 SH3-swapped baits, to SLA1-3 (sheet Fig2C): 5.438; Protein-protein interaction distance between Abp1 SH3-swapped baits, to YSC84 (sheet Fig2C): 3.425; PPIs gained by Abp1 - SH3-dependent PPIs gained by Abp1: 37; SH3-dependent PPIs - SH3-dependent PPIs gained by Abp1: 15; SH3-dependent PPIs gained by Abp1: 4
2 | B2 | 13.24 | 13.47 | 19.25 | 36.52 | 16.11 | 19.63 | 22.3 | 10.43 | 15.96 | 30.85 | 16.72 | 31.53 | 10.77 | 23.45 | 10.61 | 35.15 | 12.02 | 0.00 | 3.731 | 9.135 | Protein-protein interaction distance between Abp1 SH3-swapped baits, to MYO5 (sheet Fig2C): 7.822; Protein-protein interaction distance between Abp1 SH3-swapped baits, to NBP2 (sheet Fig2C): 21.49; Protein-protein interaction distance between Abp1 SH3-swapped baits, to PIN3 (sheet Fig2C): 5.513; Protein-protein interaction distance between Abp1 SH3-swapped baits, to RVS167 (sheet Fig2C): 7.392; Protein-protein interaction distance between Abp1 SH3-swapped baits, to SDC25 (sheet Fig2C): 37.12; Protein-protein interaction distance between Abp1 SH3-swapped baits, to SHO1 (sheet Fig2C): 11.57; Protein-protein interaction distance between Abp1 SH3-swapped baits, to SLA1-1 (sheet Fig2C): 33.34; Protein-protein interaction distance between Abp1 SH3-swapped baits, to SLA1-2 (sheet Fig2C): 24.03; Protein-protein interaction distance between Abp1 SH3-swapped baits, to SLA1-3 (sheet Fig2C): 5.759; Protein-protein interaction distance between Abp1 SH3-swapped baits, to YSC84 (sheet Fig2C): 3.911; PPIs gained by Abp1 - SH3-dependent PPIs gained by Abp1: 41; SH3-dependent PPIs - SH3-dependent PPIs gained by Abp1: 8; SH3-dependent PPIs gained by Abp1: 0
